Experimental data: patent publication EP0311108A2, “Anti-HIV active 3'-azido-2,6-diaminopurine-2',3'-dideoxyriboside” (Stichting REGA V.Z.W., priority 1987, dated 1989)

Experiments:
[1] = substrate: [N-]=[N+]=N[C@H]1C[C@H](n2cnc3c(N)nc(N)nc32)O[C@@H]1CO; assay: Deamination by adenosine deaminase (substrate kinetics); type: biochemical, beef; settings: other: substrate of ADA
Text: Several ddDAPR analogues were examined for their sus­ceptibility to deamination by beef intestine adenosine de­aminase (ADA).

[2] = substrate: Nc1nc(N)c2ncn([C@@H]3O[C@H](CO)[C@@H](O)[C@@H]3O)c2n1; assay: purified protein, by the assay type; settings: other: substrate of ADA

B1: beef intestine adenosine deaminase (ADA) (Bos taurus) (protein)
chain: MAQTPAFNKPKVELHVHLDGAIKPETILYYGRKRGIALPADTPEELQNIIGMDKPLSLPEFLAKFDYYMPAIAGCREAVKRIAYEFVEMKAKDGVVYVEVRYSPHLLANSKVEPIPWNQAEGDLTPDEVVSLVNQGLQEGERDFGVKVRSILCCMRHQPSWSSEVVELCKKYREQTVVAIDLAGDETIEGSSLFPGHVKAYAEAVKSGVHRTVHAGEVGSANVVKEAVDTLKTERLGHGYHTLEDATLYNRLRQENMHFEVCPWSSYLTGAWKPDTEHPVVRFKNDQVNYSLNTDDPLIFKSTLDTDYQMTKNEMGFTEEEFKRLNINAAKSSFLPEDEKKELLDLLYKAYGMPSPASAEQCL
notes: Kinetic properties of beef intestine adenosine deaminase; from tissue; host or cells: beef intestine
Km [1]: 11 µM | Vmax [1]: 40 µmole/mg protein/min | Km [2]: 83 µM | Vmax [2]: 5.9 µmole/mg protein/min
